Our source for the Kd values is paper doi:10.1101/2022.06.13.495963.

Broadly, the Kd is a measure of binding affinity in units of concentration. High values mean lower affinity, low ones higher affinity.

Common to all, as to assay: ITC
On the technique in general: ITC needs no label: the signal is the heat of the interaction.

In assay [1] the target is B-Myb negative regulatory domain, C-terminal half, amino acids 510-600 (NRD^510-600) (human) (UniProt P10244).
In assay [2] the target is NRD^510-600 S577A, not phosphorylated (NRD^S577A) (human) (UniProt P10244).
Chain of NRD^510-600 S577A, not phosphorylated (NRD^S577A) (human) (P10244 510-600 S577A): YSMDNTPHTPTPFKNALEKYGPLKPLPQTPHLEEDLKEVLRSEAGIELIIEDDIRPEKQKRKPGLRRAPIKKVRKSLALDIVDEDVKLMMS
For assay [3], the target named is NRD^510-600 T538A, not phosphorylated (NRD^T538A) (human) (UniProt P10244).
Chain of NRD^510-600 T538A, not phosphorylated (NRD^T538A) (human) (P10244 510-600 T538A): as the sequence (P10244 510-600 S577A) above, with T29A, A68S counted along it

Chain of B-Myb negative regulatory domain, C-terminal half, amino acids 510-600 (NRD^510-600) (human) (P10244 510-600): as the sequence (P10244 510-600 S577A) above, with A68S counted along it

On to “B-Myb DNA binding domain (B-Myb^34-183) (from UniProt P10244-1 34-183) (domain or fragment)”, for which the dissociation constant Kd in assay [1] was 4.9 µM; in assay [2], 3.2 µM; in assay [3], 6.5 µM.
